Residue numbers refer to the chain shown, from its start.
T1: IscR (His-tagged) (Comamonas testosteroni S44, UniProt A0A0L7MDB4 1-178)
T1 sequence: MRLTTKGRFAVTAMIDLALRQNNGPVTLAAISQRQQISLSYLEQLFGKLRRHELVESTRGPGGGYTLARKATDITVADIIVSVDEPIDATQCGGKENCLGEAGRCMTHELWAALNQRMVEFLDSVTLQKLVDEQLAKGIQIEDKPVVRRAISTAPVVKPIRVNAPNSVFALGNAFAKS

B1: Site B* 30-bp (dsDNA)
DNA 1: GATGCGCTCGCCTCAAACACTCAACAACAA
DNA 2: TTGTTGTTGAGTGTTTGAGGCGAGCGCATC
B2: Site B 30-bp (dsDNA)
DNA 1: B1 DNA 1 with G4A, C5T, G6A
DNA 2: B1 DNA 2 with C25T, G26A, C27T
B3: Site A* 30-bp (dsDNA)
DNA 1: CTGTTACCCGACAAAGCTGGCGGGGAATGT
DNA 2: ACATTCCCCGCCAGCTTTGTCGGGTAACAG
B4: Site A 30-bp (dsDNA)
DNA 1: CTGTTACCCGACAAAATTGATGGGGAATGT
DNA 2: ACATTCCCCATCAATTTTGTCGGGTAACAG

target: T1, IscR (His-tagged); test: EMSA; 100 mM HEPES pH 7.6, 5 mM EDTA, 50 mM (NH4)2SO4, 5 mM DTT, 1% (w/v) Tween 20, 150 mM KCl; 30 min at 30 C; 20 uL; 6% native PAGE, ethidium bromide; conditions: protein: recombinant; tags: His-tag (pET-28a(+)); chain copies: 2

Question: Does B1 bind?
Answer: no binding

Question: Does B2 bind?
Answer: binds

Question: Does B3 bind?
Answer: no binding

Question: Does B4 bind?
Answer: binds

Reference: article PMC4683182, “Global Regulator IscR Positively Contributes to Antimonite Resistance and Oxidation in Comamonas testosteroni S44”
